Experimental data reported in publication PMC12087451, “The SmWRKY32-SmbHLH65/SmbHLH85 regulatory module mediates tanshinone biosynthesis in Salvia miltiorrhiza”.

B1: pSmbHLH65 W-box probe (3 copies) (dsDNA)
DNA 1: TTCATTGACCAAATTTCATTGACCAAATTTCATTGACCAAAT
DNA 2: ATTTGGTCAATGAAATTTGGTCAATGAAATTTGGTCAATGAA
B2: pSmbHLH65-M cold probe (dsDNA)
DNA 1: TTCAAAAAAAAAATTTCAAAAAAAAAATTTCAAAAAAAAAAT
DNA 2: ATTTTTTTTTTGAAATTTTTTTTTTGAAATTTTTTTTTTGAA

Tests used:
GST-SmWRKY32 [1] = target: T1, GST-SmWRKY32 (Salvia miltiorrhiza, UniProt A0A0D5YAE6 1-129); assay: EMSA; Chemiluminescent EMSA kit (Beyotime GS009) EMSA/Gel-Shift binding buffer, 25 C, 10 min then 20 min with biotin probe, 6% PAGE; salt and pH not stated; conditions: protein: recombinant; tags: N-terminal GST (pGEX-4T-1); label: biotin (labelled probe); blunt
GST-SmWRKY32 [2] = target: T1, GST-SmWRKY32; assay: competition; 50-fold unlabelled mutant competitor; Chemiluminescent EMSA kit (Beyotime GS009) EMSA/Gel-Shift binding buffer, 25 C, 10 min then 20 min with biotin probe, 6% PAGE; salt and pH not stated; conditions: protein: recombinant; tags: N-terminal GST (pGEX-4T-1); label: none; blunt

T1 sequence (A0A0D5YAE6 entry or part of it): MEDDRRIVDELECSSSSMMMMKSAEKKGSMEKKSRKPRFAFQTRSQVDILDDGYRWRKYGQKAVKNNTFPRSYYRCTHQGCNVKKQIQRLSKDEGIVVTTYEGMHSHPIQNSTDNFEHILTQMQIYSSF

Binder | binding result (GST-SmWRKY32 [1]) | binding result (GST-SmWRKY32 [2])
B1 | binds | –
B2 | – | no binding
